# B1: anti-KLH antibody (human IgG1, clone 120.6.1) (antibody, V domains shown)
# VH: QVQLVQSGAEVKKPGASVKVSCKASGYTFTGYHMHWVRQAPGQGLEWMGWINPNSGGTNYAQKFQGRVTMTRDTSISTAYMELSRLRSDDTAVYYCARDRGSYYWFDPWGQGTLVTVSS
# VL: DIQMTQSPSSLSASVGDRVTITCRASQGIRNDLGWYQQKPGKAPKRLIYAASSLQSGVPSRFSGSGSGTEFTLTISSLQPEDFATYYCLQHNSYPLTFGGGTKVEIK
# notes: also called IgG1 (120.6.1); anti-KLH 120.6.1
# Target: T1, keyhole limpet hemocyanin (multimeric high molecular weight KLH) (Megathura crenulata (keyhole limpet), UniProt Q10583 17-3414; Q10584 20-3421)
# T1 construct: also called mcKLH; Multimeric KLH
# Assay: SPR (BIAcore 2000), antibody captured on anti-human IgG Fc surface, multimeric KLH injected; apparent constants
binder,measurement,value
B1,Kd,0.2 nM
same,koff,2.5e-05 s⁻¹
same,kon,120000 M⁻¹ s⁻¹
